Assays:
[1] = system: Y. kristensenii phytase YkAPPA variant YkAPPA-E230G, SEQ ID NO.5; test: Kinetic parameters of phytase variant with sodium phytate (double reciprocal method); type: biochemical; conditions: E230G vs wild phytase
Experimental: (§1) According to embodiment of the present invention, the phytase variant YkAPPA-E230G with amino acid sequence as set forth in SEQ ID NO.5 is obtained by mutation at the 230th site of glutamic acid into glycine for phytase with amino acid as set forth in SEQ ID NO.1.
(§2) Gene encoding phytase YkAPPA having the nucleotide sequence as set in SEQ ID NO. 2 from Y. kristensenii was performed with site-directed mutagenesis by Overlap PCR to obtain genes encodng the phytase variants YeAPPA-L162G, YeAPPA-L162A, YeAPPA-E230G, YkAPPA-E230A, YkAPPA-E230S, YkAPPA-E230T, YkAPPA-E230D, YkAPPA-E230P, and YkAPPA-E230R, respectively.
(§3) The modified genes encoding the phytase variants were inserted into expression vector pET-22b (+), and transformed into E coli. Strain BL21 (DE3), which were induced by IPTG in 1 mM, cultivated for 5 h at 24° C. to express the phytase, followed by being purified by columns Ni-NTA and DEAE to obtain the mutant protein with the same molecular weight as that of the wild.
(§4) The effect of pepsin on the activity of the purified mutant phytase was determined by detecting the remaining activity after being treated in pH 2 for 2 hours with the different concentrations of pepsin in a mass ratio to phytase ranging from 1/1000 to 1/1. The activity of phytase was detected by ferric molybdenum sulfate blue method by adding 50 ul of phytase solution to 950 ul of sodium phytate substrate in 1.5 mmol/L to react for 30 min at 37° C., followed by adding 1 mL of 10% (m/v) TCA to stop the reaction, and 2 mL of developing color reagent. After developing, OD is measured at 700 nm to calculate the phytase activity.
(§5) The activity of phytase was measured with sodium phytate as substrate in different concentrations of 0.0625 mmol/L, 0.1 mmol/L, 0.125 mmol/L, 0.2 mmol/L, 0.25 mmol/L, 0.5 mmol/L, 1.0 mmol/L and 1.5 mmol/L at the optimal temperature and pH, followed by calculating the values of km and Vmax by double reciprocal method for Michaelis equation, and Kcat according to the theoretical molecular weight. […] And, the catalytic properties including reaction rate, turnover rate and catalytic efficiency of the other phytase variants were similar to those of the wild phytase.

[2] = system: Y. kristensenii phytase YkAPPA variant YkAPPA-E230A, SEQ ID NO.6; test: as above; type: biochemical; conditions: E230A vs wild phytase
Experimental: (§6) According to embodiment of the present invention, the phytase variant YkAPPA-E230A with amino acid sequence as set forth in SEQ ID NO.6 is obtained by mutation at the 230th site of glutamic acid into alanine for phytase with amino acid as set forth in SEQ ID NO.1.
as §2, §3, §4, §5

[3] = system: Y. kristensenii phytase YkAPPA variant YkAPPA-L162G, SEQ ID NO.3; test: as above; type: biochemical; conditions: L162G vs wild phytase
Experimental: (§7) According to embodiment of the present invention, the phytase variant YkAPPA-L162G with amino acid sequence as set forth in SEQ ID NO.3 is obtained by mutation at the 162th site of Leucine into glycine for phytase with amino acid as set forth in SEQ ID NO.1.
as §2, §3, §4, §5

[4] = system: O=P(O)(O)O[C@H]1[C@H](OP(=O)(O)O)[C@@H](OP(=O)(O)O)[C@H](OP(=O)(O)O)[C@@H](OP(=O)(O)O)[C@H]1OP(=O)(O)O; test: as above; type: biochemical, Y. kristensenii; conditions: other: E230A, optimal pH 4.5 and temperature 55° C.
Experimental: as §6, §2, §3, §4, §5

[5] = system: O=P(O)(O)O[C@H]1[C@H](OP(=O)(O)O)[C@@H](OP(=O)(O)O)[C@H](OP(=O)(O)O)[C@@H](OP(=O)(O)O)[C@H]1OP(=O)(O)O; test: as above; type: biochemical, Y. kristensenii; conditions: other: E230D, optimal pH 4.5 and temperature 55° C.
Experimental: According to embodiment of the present invention, the phytase variant YkAPPA-E230D with amino acid sequence as set forth in SEQ ID NO.9 is obtained by mutation at the 230th site of glutamic acid into aspartic acid for phytase with amino acid as set forth in SEQ ID NO.1.
as §2, §3, §4, §5

[6] = system: O=P(O)(O)O[C@H]1[C@H](OP(=O)(O)O)[C@@H](OP(=O)(O)O)[C@H](OP(=O)(O)O)[C@@H](OP(=O)(O)O)[C@H]1OP(=O)(O)O; test: as above; type: biochemical, Y. kristensenii; conditions: other: E230G, optimal pH 4.5 and temperature 55° C.
Experimental: as §1, §2, §3, §4, §5

[7] = system: O=P(O)(O)O[C@H]1[C@H](OP(=O)(O)O)[C@@H](OP(=O)(O)O)[C@H](OP(=O)(O)O)[C@@H](OP(=O)(O)O)[C@H]1OP(=O)(O)O; test: as above; type: biochemical, Y. kristensenii; conditions: other: E230P, optimal pH 4.5 and temperature 60° C.
Experimental: According to embodiment of the present invention, the phytase variant YkAPPA-E230P with amino acid sequence as set forth in SEQ ID NO.10 is obtained by mutation at the 230th site of glutamic acid into proline for phytase with amino acid as set forth in SEQ ID NO.1.
as §2, §3, §4, §5

[8] = system: O=P(O)(O)O[C@H]1[C@H](OP(=O)(O)O)[C@@H](OP(=O)(O)O)[C@H](OP(=O)(O)O)[C@@H](OP(=O)(O)O)[C@H]1OP(=O)(O)O; test: as above; type: biochemical, Y. kristensenii; conditions: other: E230R, optimal pH 4.0 and temperature 55° C.
Experimental: According to embodiment of the present invention, the phytase variant YkAPPA-E230R with amino acid sequence as set forth in SEQ ID NO.11 is obtained by mutation at the 230th site of […] for phytase with amino acid as set forth in SEQ ID.
as §2, §3, §4, §5

[9] = system: O=P(O)(O)O[C@H]1[C@H](OP(=O)(O)O)[C@@H](OP(=O)(O)O)[C@H](OP(=O)(O)O)[C@@H](OP(=O)(O)O)[C@H]1OP(=O)(O)O; test: as above; type: biochemical, Y. kristensenii; conditions: other: E230S, optimal pH 4.5 and temperature 55° C.
Experimental: According to embodiment of the present invention, the phytase variant YkAPPA-E230S with amino acid sequence as set forth in SEQ ID NO.7 is obtained by mutation at the 230th site of glutamic acid into serine for phytase with amino acid as set forth in SEQ ID NO.1.
as §2, §3, §4, §5

[10] = system: O=P(O)(O)O[C@H]1[C@H](OP(=O)(O)O)[C@@H](OP(=O)(O)O)[C@H](OP(=O)(O)O)[C@@H](OP(=O)(O)O)[C@H]1OP(=O)(O)O; test: as above; type: biochemical, Y. kristensenii; conditions: other: E230T, optimal pH 4.5 and temperature 55° C.
Experimental: According to embodiment of the present invention, the phytase variant YkAPPA-E230T with amino acid sequence as set forth in SEQ ID NO.8 is obtained by mutation at the 230th site of glutamic acid into threonine for phytase with amino acid as set forth in SEQ ID NO.1.
as §2, §3, §4, §5

[11] = system: O=P(O)(O)O[C@H]1[C@H](OP(=O)(O)O)[C@@H](OP(=O)(O)O)[C@H](OP(=O)(O)O)[C@@H](OP(=O)(O)O)[C@H]1OP(=O)(O)O; test: as above; type: biochemical, Y. kristensenii; conditions: other: L162G, optimal pH 4.5 and temperature 55° C.
Experimental: as §7, §2, §3, §4, §5

[12] = system: O=P(O)(O)O[C@H]1[C@H](OP(=O)(O)O)[C@@H](OP(=O)(O)O)[C@H](OP(=O)(O)O)[C@@H](OP(=O)(O)O)[C@H]1OP(=O)(O)O; test: Kinetic parameters of phytase with sodium phytate (double reciprocal method); type: biochemical, Y. kristensenii; conditions: other: wild type, optimal pH 4.5 and temperature 55° C.
Experimental: as §2, §3, §4, §5

O=P(O)(O)O[C@H]1[C@H](OP(=O)(O)O)[C@@H](OP(=O)(O)O)[C@H](OP(=O)(O)O)[C@@H](OP(=O)(O)O)[C@H]1OP(=O)(O)O [sodium phytate]
Reaction rate Vmax relative to the wild phytase [1]: 1.9 times | catalytic efficiency Kcat/km relative to the wild phytase [1]: 2.1 times | conversion rate Kcat relative to the wild phytase [1]: 1.9 times | Reaction rate Vmax relative to the wild phytase [2]: 1.3 times | catalytic efficiency relative to the wild phytase [2]: 2.1 times | conversion rate Kcat relative to the wild phytase [2]: 1.3 times | Reaction rate Vmax relative to the wild phytase [3]: 1.6 to 1.8 times | catalytic efficiency relative to the wild phytase [3]: 2.1 times | conversion rate Kcat relative to the wild phytase [3]: 1.6 to 1.8 times

Y. kristensenii phytase YkAPPA variant YkAPPA-E230A, SEQ ID NO.6 (Yersinia kristensenii; E230A)
Km [4]: 90 µM | Vmax [4]: 4530 µmol/min/mg | kcat [4]: 3470 s⁻¹ | kcat/Km [4]: 3.77e+07 M⁻¹ s⁻¹

Y. kristensenii phytase YkAPPA variant YkAPPA-E230D, SEQ ID NO.9 (Yersinia kristensenii; E230D)
Km [5]: 90 µM | Vmax [5]: 3590 µmol/min/mg | kcat [5]: 2740 s⁻¹ | kcat/Km [5]: 2.91e+07 M⁻¹ s⁻¹

Y. kristensenii phytase YkAPPA variant YkAPPA-E230G, SEQ ID NO.5 (Yersinia kristensenii; E230G)
Km [6]: 100 µM | Vmax [6]: 7100 µmol/min/mg | kcat [6]: 5430 s⁻¹ | kcat/Km [6]: 6.17e+07 M⁻¹ s⁻¹

Y. kristensenii phytase YkAPPA variant YkAPPA-E230P, SEQ ID NO.10 (Yersinia kristensenii; E230P)
Km [7]: 80 µM | Vmax [7]: 3180 µmol/min/mg | kcat [7]: 2430 s⁻¹ | kcat/Km [7]: 2.98e+07 M⁻¹ s⁻¹

Y. kristensenii phytase YkAPPA variant YkAPPA-E230R, SEQ ID NO.11 (Yersinia kristensenii; E230R)
Km [8]: 110 µM | Vmax [8]: 4330 µmol/min/mg | kcat [8]: 3310 s⁻¹ | kcat/Km [8]: 2.99e+07 M⁻¹ s⁻¹

Y. kristensenii phytase YkAPPA variant YkAPPA-E230S, SEQ ID NO.7 (Yersinia kristensenii; E230S)
Km [9]: 90 µM | Vmax [9]: 3800 µmol/min/mg | kcat [9]: 2900 s⁻¹ | kcat/Km [9]: 2.93e+07 M⁻¹ s⁻¹

Y. kristensenii phytase YkAPPA variant YkAPPA-E230T, SEQ ID NO.8 (Yersinia kristensenii; E230T)
Km [10]: 80 µM | Vmax [10]: 3250 µmol/min/mg | kcat [10]: 2480 s⁻¹ | kcat/Km [10]: 2.98e+07 M⁻¹ s⁻¹

Y. kristensenii phytase YkAPPA variant YkAPPA-L162G, SEQ ID NO.3 (Yersinia kristensenii; L162G)
Km [11]: 90 µM | Vmax [11]: 6320 µmol/min/mg | kcat [11]: 4840 s⁻¹ | kcat/Km [11]: 4.61e+07 M⁻¹ s⁻¹

Yersinia (Y.) kristensenii phytase YkAPPA, wild type, SEQ ID NO.1 (Yersinia kristensenii)
Km [12]: 90 µM | Vmax [12]: 3550 µmol/min/mg | kcat [12]: 2720 s⁻¹ | kcat/Km [12]: 2.94e+07 M⁻¹ s⁻¹
